Measurements from patent publication US20210261648A1 (published 2021).
Where a chain is given by its changes, count along the chain named. Names may count otherwise.

T1: FcγRIIb extracellular domain with C-terminal His tag (human, UniProt P31994 43-217)
T1 construct: extracellular domain; For crystallography it was expressed with kifunensine and trimmed with Endo F1; also called FcgRIIb; FcγRIIb extracellular region; not shown: His tag attached to the C terminus
T1 sequence (looked up): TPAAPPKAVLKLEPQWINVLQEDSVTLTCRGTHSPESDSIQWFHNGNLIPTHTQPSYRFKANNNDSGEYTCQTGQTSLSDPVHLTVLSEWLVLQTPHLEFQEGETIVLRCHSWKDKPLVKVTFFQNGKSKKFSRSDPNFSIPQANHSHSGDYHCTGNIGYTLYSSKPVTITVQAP

T2: FcγRIIa type R extracellular domain with C-terminal His tag (human, UniProt P12318 34-217)
T2 chain: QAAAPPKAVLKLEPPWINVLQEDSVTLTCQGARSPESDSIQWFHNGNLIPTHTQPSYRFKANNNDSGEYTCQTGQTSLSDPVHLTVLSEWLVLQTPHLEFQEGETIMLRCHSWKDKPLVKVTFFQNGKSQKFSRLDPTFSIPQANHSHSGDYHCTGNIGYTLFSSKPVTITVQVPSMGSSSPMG

T3: FcγRIIb extracellular domain with C-terminal His tag (human, UniProt P31994 43-217)
T3 construct: extracellular domain; also called FcgRIIb
T3 sequence (looked up): T1 sequence (looked up)

T4: FcγRIIa type H extracellular domain with C-terminal His tag (human, UniProt P12318 34-217)
T4 construct: extracellular domain; also called FcgRIIaH; FcγRIIa H
T4 sequence (looked up): T2 chain with R134H

T5: FcγRIIa type H extracellular domain with C-terminal His tag (human, UniProt P12318 34-217)
T5 construct: extracellular domain; also called FcgRIIaH; FcγRIIa H
T5 sequence (looked up): T2 chain with R134H

B1: GpH7-AP001/GpH7-BP063/GpL16-k0 (antibody, human IgG1, kappa, name in EU numbering)
heavy 1: QVQLVQSGAEVKKPGASVTVSCKASGYTFTDYEMHWIRQPPGEGLEWIGAIDPKTGDTAYSESFQDRVTLTADKSTSTAYMELSSLTSEDTAVYYCTRFYSYTYWGQGTLVTVSSASTKGPSVFPLAPSSKSTSGGTAALGCLVKDYFPEPVTVSWNSGALTSGVHTFPAVLQSSGLYSLSSVVTVPSSSLGTQTYICNVNHKPSNTKVDKKVEPKSCDKTHTCPPCPAPELLGGDSVFLFPPKPKDTLMISRTPEVTCVVVDVSHEDPEVKFNWYVDGVEVHNAKTKPREEQYNSTYRVVSVLTVLHQDWLNGKEYKCKVSNKALPAPIEKTISKAKGQPREPQVYTLPPSRKELTKNQVSLTCLVKGFYPSDIAVEWESNGQPENNYKTTPPVLDSDGSFFLYSKLTVDKSRWQQGNVFSCSVMHEALHNRYTQKSLSLSP
heavy 2: not shown
light: DIVMTQSPLSLPVTPGEPASISCQASESLVHSNRNTYLHWYLQKPGQSPQLLIYKVSNRFSGVPDRFSGSGSGTDFTLKISRVEAEDVGVYYCSQNTHVPPTFGQGTKVEIERTVAAPSVFIFPPSDEQLKSGTASVVCLLNNFYPREAKVQWKVDNALQSGNSQESVTEQDSKDSTYSLSSTLTLSKADYEKHKVYACEVTHQGLSSPVTKSFNRGEC
notes: Heterodimerized anti-glypican 3 IgG1
B2: GpH7-AP001/GpH7-BP069/GpL16-k0 (antibody, human IgG1, kappa, name in EU numbering)
heavy 1: B1 heavy 1
heavy 2: not shown
light: B1 light
notes: as for B1
B3: IL6R-BP567/IL6R-L (antibody, human IgG1, kappa)
heavy: QVQLQESGPGLVKPSETLSLTCAVSGHSISHDHAWSWVRQPPGEGLEWIGFISYSGITNYNPSLQGRVTISRDNSKNTLYLQMNSLRAEDTAVYYCARSLARTTAMDYWGEGTLVTVSSASTKGPSVFPLAPSSKSTSGGTAALGCLVKDYFPEPVTVSWNSGALTSGVHTFPAVLQSSGLYSLSSVVTVPSSSLGTQTYICNVNHKPSNTKVDKKVEPKSCDKTHTCPPCPAPDLLGGDSVFLFPPKPKDTLMISRTPEVTCVVIDVAEEDGEVKFNWYVDGVEVHNAKTKPREEQDNSTYRVVSVLTVLHQDWLNGKEYKCKVSNKALPAPIEKTISKAKGQPREPQVYTLPPSRDELTKNQVSLTCLVKGFYPSDIAVEWESNGQPENNYKTTPPVLDSDGSFFLYSKLTVDKSRWQQGNVFSCSVMHEALHNHYTQESLSLSP
light: not shown
notes: Anti-human IL-6R IgG1; alterations introduced into IL6R-B3 (G1d with K439E)
B4: IL6R-BP562/IL6R-L (antibody, human IgG1, kappa)
heavy: B3 heavy with D235E, G239D, I266V, A269S, E270D, E274D, A332R
light: not shown
notes: as for B3
B5: IL6R-BP568/IL6R-L (antibody, human IgG1, kappa)
heavy: B3 heavy with D298Y
light: not shown
notes: as for B3
B6: IL6R-BP564/IL6R-L (antibody, human IgG1, kappa)
heavy: B3 heavy with D235E, G239D, I266V, A269S, E274D, A332R
light: not shown
notes: as for B3
B7: IL6R-BP560/IL6R-L (antibody, human IgG1, kappa)
heavy: B3 heavy with D235E, I266V, A269G, A332R
light: not shown
notes: as for B3
B8: IL6R-BP561/IL6R-L (antibody, human IgG1, kappa)
heavy: B3 heavy with G239D, I266V, A269S, E270D, E274D, A332R
light: not shown
notes: as for B3
B9: IL6R-2B253/IL6R-L (antibody, human IgG1, kappa)
heavy: B3 heavy with I266V, A269S, E270H, G273P, D298Y, V325M
light: not shown
B10: IL6R-BP206/IL6R-L (antibody, human IgG1, kappa)
heavy: B3 heavy with I266V, A269S, E270H, D298Y, A332R
light: not shown
B11: IL6R-BP203/IL6R-L (antibody, human IgG1, kappa)
heavy: B3 heavy with D235E, G239D, I266V, A269S, E270H, D298Y, A332R
light: not shown
B12: IL6R-BP199/IL6R-L (antibody, human IgG1, kappa)
heavy: B3 heavy with I266V, A269S, E270H, G273P, D298Y, K328D, A332R
light: not shown
B13: IL6R-BP211/IL6R-L (antibody, human IgG1, kappa)
heavy: B3 heavy with I266V, A269S, E270D, D298Y, K328A, A332R
light: not shown
B14: IL6R-BP209/IL6R-L (antibody, human IgG1, kappa)
heavy: B3 heavy with D235E, G239D, I266V, A269S, E270D, D298Y, K328A, A332R
light: not shown
B15: IL6R-BP207/IL6R-L (antibody, human IgG1, kappa)
heavy: B3 heavy with I266V, A269S, E270H, G273P, D298Y, A332R
light: not shown
B16: IL6R-BP213/IL6R-L (antibody, human IgG1, kappa)
heavy: B3 heavy with I266V, A269S, E270D, D298Y, A332R
light: not shown
B17: IL6R-BP471/IL6R-L (antibody, human IgG1, kappa)
heavy: B3 heavy with G239D, I266V, A269S, E270D, A332R, P333S
light: not shown
B18: IL6R-BP477/IL6R-L (antibody, human IgG1, kappa)
heavy: B3 heavy with G239D, I266V, A269S, E270D, A329G, A332R, P333S
light: not shown

target: T1, FcγRIIb extracellular domain with …; test: SPR binding amounts, FcgRIIb divided by FcgRIIaR

amount binding to FcgRIIb/amount binding to FcgRIIaR | Binder
1.7 | B1
2.2 | B2

Target: T2, FcγRIIa type R extracellular domain …
Test: SPR binding amount, relative to GpH7-AP001/GpH7-BF648/GpL16-k0

binding amount to FcgRIIaR when that of GpH7-AP001/GpH7-BF648 is defined as 100 | Binder
161 | B1
131 | B2

target: T1, FcγRIIb extracellular domain with …; test: as above

binding amount to FcgRIIb when that of GpH7-AP001/GpH7-BF648 is defined as 100 | Binder
69 | B1
72 | B2

target: T1, FcγRIIb extracellular domain with …; test: SPR; KD for FcγRIIaH divided by KD for FcγRIIb

KD(IIaH)/KD(IIb) | Binder
1230 | B3
466 | B4
748 | B5
454 | B6
168 | B7

Target: T2, FcγRIIa type R extracellular domain …
Test: SPR; KD of IL6R-B3/IL6R-L divided by KD of the variant

KD(IIaR) of the parent polypeptide/KD(IIaR) of the altered polypeptide | Binder
1.2 | B3
1.6 | B4
1.6 | B5
1.9 | B6
0.3 | B7

target: T1, FcγRIIb extracellular domain with …; test: as above

KD(IIb) of the parent polypeptide/KD(IIb) of the altered polypeptide | Binder
225 | B3
131 | B4
211 | B5
141 | B6
16.8 | B7

target: T6, FcγRIa extracellular domain with C-terminal His tag (human, UniProt P12314 16-292); test: SPR (Biacore), antibody captured, FcγR as analyte
T6 construct: also called FcgRIa; not shown: His tag attached to the C terminus
T6 sequence (P12314 16-292): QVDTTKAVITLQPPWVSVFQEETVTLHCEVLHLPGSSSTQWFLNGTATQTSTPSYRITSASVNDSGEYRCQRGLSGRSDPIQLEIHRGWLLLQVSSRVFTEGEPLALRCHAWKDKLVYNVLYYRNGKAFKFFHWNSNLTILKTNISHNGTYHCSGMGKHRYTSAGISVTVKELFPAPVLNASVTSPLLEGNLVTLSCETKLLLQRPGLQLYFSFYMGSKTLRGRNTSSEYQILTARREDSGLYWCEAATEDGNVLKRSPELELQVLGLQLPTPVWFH

Kd | Binder
0.00021 µM | B3
0.025 µM | B4
0.00019 µM | B5
0.031 µM | B6
0.0094 µM | B8
0.0056 µM | B7

Target: T2, FcγRIIa type R extracellular domain …
Test: SPR (Biacore), antibody captured, FcγR as analyte

Kd | Binder
0.89 µM | B3
0.68 µM | B4
0.68 µM | B5
0.58 µM | B6
0.51 µM | B8
4.2 µM | B7

target: T1, FcγRIIb extracellular domain with …; test: SPR (Biacore), antibody captured, FcγR as analyte

Kd | Binder
0.014 µM | B3
0.024 µM | B4
0.015 µM | B5
0.022 µM | B6
0.018 µM | B8
0.18 µM | B7

target: T3, FcγRIIb extracellular domain with …; test: SPR, captured antibody, FcgR analyte
Description: (§1) Relative binding activities were calculated for the results of analyzing interactions with the respective FcγRs according to the following method.

relative binding activity | Binder
156 relative (IL6R-BF648/IL6R-L = 100) | B9
168 relative (IL6R-BF648/IL6R-L = 100) | B10
185 relative (IL6R-BF648/IL6R-L = 100) | B11
144 relative (IL6R-BF648/IL6R-L = 100) | B12
165 relative (IL6R-BF648/IL6R-L = 100) | B13
186 relative (IL6R-BF648/IL6R-L = 100) | B14
124 relative (IL6R-BF648/IL6R-L = 100) | B15
169 relative (IL6R-BF648/IL6R-L = 100) | B16

target: T4, FcγRIIa type H extracellular domain …; test: SPR, captured antibody, FcgR analyte
Description: as §1

relative binding activity | Binder
207 relative (IL6R-BF648/IL6R-L = 100) | B9
255 relative (IL6R-BF648/IL6R-L = 100) | B11
267 relative (IL6R-BF648/IL6R-L = 100) | B14
123 relative (IL6R-BF648/IL6R-L = 100) | B16

target: T7, FcγRIIIa type V extracellular domain with C-terminal His tag (human, UniProt P08637 17-208); test: SPR, captured antibody, FcgR analyte
T7 construct: extracellular domain; also called FcgRIIIaV; FcγRIIIaV
T7 sequence (P08637 17-208 F176V): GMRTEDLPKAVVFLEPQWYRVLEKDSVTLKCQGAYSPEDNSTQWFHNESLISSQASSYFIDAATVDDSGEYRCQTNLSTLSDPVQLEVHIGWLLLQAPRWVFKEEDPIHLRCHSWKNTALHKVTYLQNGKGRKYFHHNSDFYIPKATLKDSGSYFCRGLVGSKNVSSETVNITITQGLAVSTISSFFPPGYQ
Description: as §1

relative binding activity | Binder
126 relative (IL6R-BF648/IL6R-L = 100) | B9
92 relative (IL6R-BF648/IL6R-L = 100) | B10
88 relative (IL6R-BF648/IL6R-L = 100) | B11
103 relative (IL6R-BF648/IL6R-L = 100) | B12
87 relative (IL6R-BF648/IL6R-L = 100) | B13
153 relative (IL6R-BF648/IL6R-L = 100) | B14
97 relative (IL6R-BF648/IL6R-L = 100) | B15
100 relative (IL6R-BF648/IL6R-L = 100) | B16

target: T8, FcγRIa extracellular domain with C-terminal His tag (human, UniProt P12314 16-292); test: SPR, captured antibody, FcgR analyte
T8 construct: also called FcgRIa
T8 sequence (P12314 16-292): as the sequence (P12314 16-292) above
Description: as §1

relative binding activity | Binder
155 relative (IL6R-BF648/IL6R-L = 100) | B9
101 relative (IL6R-BF648/IL6R-L = 100) | B10
35 relative (IL6R-BF648/IL6R-L = 100) | B11
112 relative (IL6R-BF648/IL6R-L = 100) | B12
128 relative (IL6R-BF648/IL6R-L = 100) | B13
68 relative (IL6R-BF648/IL6R-L = 100) | B14
74 relative (IL6R-BF648/IL6R-L = 100) | B15
118 relative (IL6R-BF648/IL6R-L = 100) | B16

target: T1, FcγRIIb extracellular domain with …; test: SPR; KD for FcγRIIaR divided by KD for FcγRIIb

KD(IIaR)/KD(IIb) | Binder
64.4 | B3
29 | B4
46.1 | B5
26.2 | B6
22.8 | B7

target: T5, FcγRIIa type H extracellular domain …; test: SPR (Biacore)

binding result | Binder
binds | B17
binds | B18

target: T9, FcγRIa extracellular domain with C-terminal His tag (human, UniProt P12314 16-292); test: SPR (Biacore)
T9 construct: Whole entry named; also called FcgRIa; CD64A
T9 sequence (P12314 16-292): as above

binding result | Binder
binds | B17
binds | B18

target: T10, FcγRIIIa type V extracellular domain with C-terminal His tag (human, UniProt P08637 17-208); test: SPR (Biacore)
T10 construct: extracellular domain; Allotype V158 (type V); also called FcgRIIIaV; FcγRIIIaV
T10 sequence (P08637 17-208 F176V): as the sequence (P08637 17-208 F176V) above

binding result | Binder
binds | B17
binds | B18
